# Measured values taken from publication PMC6120219.
# B1: human TRAP1 D158N point mutant (natural protein)
# chain: STQTAEDKEEPLHSIISSTESVQGSTSKHEFQAETKKLLDIVARSLYSEKEVFIRELISNASDALEKLRHKLVSDGQALPEMEIHLQTNAEKGTITIQNTGIGMTQEELVSNLGTIARSGSKAFLDALQNQAEASSKIIGQFGVGFYSAFMVADRVEVYSRSAAPGSLGYQWLSDGSGVFEIAEASGVRTGTKIIIHLKSDCKEFSSEARVRDVVTKYSNFVSFPLYLNGRRMNTLQAIWMMDPKDVREWQHEEFYRYVAQAHDKPRYTLHYKTDAPLNIRSIFYVPDMKPSMFDVSRELGSSVALYSRKVLIQTKATDILPKWLRFIRGVVDSEDIPLNLSRELLQESALIRKLRDVLQQRLIKFFIDQSKKDAEKYAKFFEDYGLFMREGIVTATEQEVKEDIAKLLRYESSALPSGQLTSLSEYASRMRAGTRNIYYLCAPNRHLAEHSPYYEAMKKKDTEVLFCFEQFDELTLLHLREFDKKKLISVETDIVVDHYKEEKFEDRSPAAECLSEKETEELMAWMRNVLGSRVTNVKVTLRLDTHPAMVTVLEMGAARHFLRMQQLAKTQEERAQLLQPTLEINPRHALIKKLNQLRASEPGLAQLLVDQIYENAMIAAGLVDDPRAMVGRLNELLVKALERH
# Molecular target: T1, human TRAP1 (TNF receptor-associated protein 1), full-length WT without mitochondrial signal sequence (human) (UniProt Q12931)
# T1 sequence: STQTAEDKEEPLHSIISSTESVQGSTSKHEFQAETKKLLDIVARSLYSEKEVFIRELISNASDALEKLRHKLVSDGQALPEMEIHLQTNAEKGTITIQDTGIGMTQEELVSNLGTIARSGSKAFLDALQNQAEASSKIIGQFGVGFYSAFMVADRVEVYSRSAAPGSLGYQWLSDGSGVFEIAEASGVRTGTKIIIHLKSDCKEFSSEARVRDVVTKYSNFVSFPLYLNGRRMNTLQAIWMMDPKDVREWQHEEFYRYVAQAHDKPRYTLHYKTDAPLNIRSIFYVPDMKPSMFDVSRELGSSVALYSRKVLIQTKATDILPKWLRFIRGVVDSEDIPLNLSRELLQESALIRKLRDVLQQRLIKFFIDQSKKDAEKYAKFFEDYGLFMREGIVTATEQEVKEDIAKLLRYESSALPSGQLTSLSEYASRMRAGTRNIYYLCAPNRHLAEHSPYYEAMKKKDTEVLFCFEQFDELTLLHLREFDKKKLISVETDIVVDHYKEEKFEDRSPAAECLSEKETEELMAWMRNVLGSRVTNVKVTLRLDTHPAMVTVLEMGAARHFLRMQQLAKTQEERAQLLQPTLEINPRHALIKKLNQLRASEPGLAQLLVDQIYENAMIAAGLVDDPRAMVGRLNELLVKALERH
binder,measurement,value
B1,"Vmax of ATPase activity of the WT:D158N heterodimer mixture, ATP titration with CaCl2 (μM ATP min^−1/μM ATPase)",2.31
same,"Vmax of ATPase activity of the WT:D158N heterodimer mixture, ATP titration with MgCl2 (μM ATP min^−1/μM ATPase)",3.77
